Values joined by “and” are separate entries in the source; they are usually repeats but may differ in a detail not shown here. Identical values can stand only once.
Assays:
Conditions in all cases: remark: other sources report otherwise
[1] = molecular target: full-length human UBR5 (construct for single-particle analysis: 10xHis, 3C site, UBR5, double strep tag) (human) (UniProt O95071); test: mass photometry
[2] = molecular target: full-length human UBR5 (construct for single-particle analysis: 10xHis, 3C site, UBR5, double strep tag) (human) (UniProt O95071); test: cryo-EM structure
[3] = molecular target: full-length human UBR5 (construct for single-particle analysis: 10xHis, 3C site, UBR5, double strep tag) (human) (UniProt O95071); test: mass photometry; remark: listed apart in the source

full-length human UBR5 (construct for single-particle analysis: 10xHis, 3C site, UBR5, double strep tag), O95071 1-2799
stoichiometry N [1]: 4 | stoichiometry N [2]: 4 and 2 | stoichiometry N [3]: 2
